First the molecules themselves.
B1: Nb.1 (VHH)
VHH: QVQLQESGGGLVQAGGSLRLSCAASGTISPRGVMGWYRQAPGKEREFVAAINYGGTTYYADSVKGRFTISRDNAKNTVYLQMNSLKPEDTAVYYCAVYYYINSQRKVLLYWGQGTQVTVSS
notes: nanobody selected from a synthetic yeast-display library; cloned into a modified pET28 vector; also called nanobody Nb.1
B2: BCCIPα with a Myc-tag (natural protein, human, UniProt Q9P287-2 1-322, looked up)
chain: MASRSKRRAVESGVPQPPDPPVQRDEEEEKEVENEDEDDDDSDKEKDEEDEVIDEEVNIEFEAYSLSDNDYDGIKKLLQQLFLKAPVNTAELTDLLIQQNHIGSVIKQTDVSEDSNDDMDEDEVFGFISLLNLTERKGTQCVEQIQELVLRFCEKNCEKSMVEQLDKFLNDTTKPVGLLLSERFINVPPQIALPMYQQLQKELAGAHRTNKPCGKCYFYLLISKTFVEAGKNNSKKKPSNKKKAALMFANAEEEFFYEEQGKPEVLGGPDTRRGLEPVPIQHNGGSRGQVTALVSLKAGLIQSRSTLSDFQGTFMTVGIALS
B3: BCCIPα-ΔL (residues 50 to 322 with deletions of residues 112 to 122 and 231 to 280) (domain or fragment, human, UniProt Q9P287-2 50-322, looked up)
chain: DEVIDEEVNIEFEAYSLSDNDYDGIKKLLQQLFLKAPVNTAELTDLLIQQNHIGSVIKQTDVEVFGFISLLNLTERKGTQCVEQIQELVLRFCEKNCEKSMVEQLDKFLNDTTKPVGLLLSERFINVPPQIALPMYQQLQKELAGAHRTNKPCGKCYFYLLISKTFVEAGQHNGGSRGQVTALVSLKAGLIQSRSTLSDFQGTFMTVGIALS
notes: human BCCIPα residues 50 to 322 with two loop deletions; source: E. coli BL21 (DE3), purified (Ni-NTA, on-column 3C cleavage, Resource Q); not shown: His6, N-terminal, cleaved
B4: BCCIPα-ΔS (residues 50 to 322 with deletions of residues 112 to 122, 235 to 243, and 273 to 276) (domain or fragment, human, UniProt Q9P287-2 50-322, looked up)
chain: DEVIDEEVNIEFEAYSLSDNDYDGIKKLLQQLFLKAPVNTAELTDLLIQQNHIGSVIKQTDVEVFGFISLLNLTERKGTQCVEQIQELVLRFCEKNCEKSMVEQLDKFLNDTTKPVGLLLSERFINVPPQIALPMYQQLQKELAGAHRTNKPCGKCYFYLLISKTFVEAGKNNSAALMFANAEEEFFYEEQGKPEVLGGPDTRPVPIQHNGGSRGQVTALVSLKAGLIQSRSTLSDFQGTFMTVGIALS
notes: human BCCIPα residues 50 to 322 with three loop deletions; source: E. coli BL21 (DE3), purified (Ni-NTA, on-column 3C cleavage, Resource Q); not shown: His6, N-terminal, cleaved

The target in experiment [1] is B4. The experiment in a line: cryo-EM structure; FAM46C/BCCIPα-ΔS/Nb.1 mixed 1:1:2, purified on Superdex 200; filament segments treated as single particles, D2 symmetry, 6.5 Å; models docked as rigid bodies. The following applies: both partners purified.
The target in experiment [2] is T1, FAM46C/BCCIPα-ΔS complex (human, UniProt Q5VWP2 1-391; Q9P287-2 50-322, deletions of residues 112 to 122 | deletions of residues 235 to 243 | deletions …).
T1 construct: human FAM46C (TENT5C), as m15; Avi-tagged, biotinylated FAM46C residues 15 to 350 in the nanobody screening; human BCCIPα residues 50 to 322 with three loop deletions, as m12; with Nb.1 it forms a 4:4:4 assembly of four 1:1:1 units and filaments; also called FAM46C/BCCIPα complex; FAM46C/BCCPα complex; source: E. coli BL21 (DE3), each protein purified, then mixed; not shown: His6, N-terminal, …
The description is as above. Particulars: both partners purified.

Experiment [3] concerns the target T2, Full-length human FAM46A with a FLAG-tag (human, UniProt Q96IP4 1-442).
T2 sequence (looked up): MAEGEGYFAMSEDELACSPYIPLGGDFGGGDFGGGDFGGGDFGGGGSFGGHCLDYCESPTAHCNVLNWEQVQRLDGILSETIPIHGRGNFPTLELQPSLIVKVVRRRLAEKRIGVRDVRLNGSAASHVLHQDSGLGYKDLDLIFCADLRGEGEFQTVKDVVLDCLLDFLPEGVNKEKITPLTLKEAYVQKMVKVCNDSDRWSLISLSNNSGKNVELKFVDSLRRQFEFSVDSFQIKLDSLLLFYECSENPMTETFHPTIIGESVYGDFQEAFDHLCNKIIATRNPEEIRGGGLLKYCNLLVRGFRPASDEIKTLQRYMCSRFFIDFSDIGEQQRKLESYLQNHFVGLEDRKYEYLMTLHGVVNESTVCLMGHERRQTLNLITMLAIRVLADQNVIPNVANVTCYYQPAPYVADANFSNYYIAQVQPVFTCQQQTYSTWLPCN
The experiment in a line: cell-based or functional assay.

The target of experiment [4] is T3, Full-length human FAM46C with a FLAG-tag (human, UniProt Q5VWP2 1-391).
T3 sequence (looked up): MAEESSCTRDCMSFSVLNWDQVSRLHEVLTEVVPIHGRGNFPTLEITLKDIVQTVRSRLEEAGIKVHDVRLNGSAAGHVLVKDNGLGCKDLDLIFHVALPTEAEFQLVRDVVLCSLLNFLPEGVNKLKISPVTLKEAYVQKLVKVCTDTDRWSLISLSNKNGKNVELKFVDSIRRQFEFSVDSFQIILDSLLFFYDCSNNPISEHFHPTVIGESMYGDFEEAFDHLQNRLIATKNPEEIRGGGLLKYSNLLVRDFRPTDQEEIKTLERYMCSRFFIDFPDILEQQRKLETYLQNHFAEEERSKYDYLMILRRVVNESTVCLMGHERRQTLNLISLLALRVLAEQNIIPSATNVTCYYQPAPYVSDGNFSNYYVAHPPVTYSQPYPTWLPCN
Briefly: cell-based or functional assay.

The target of experiment [5] is T4, FAM46A (residues 64 to 394) (human, UniProt Q96IP4 64-394).
T4 construct: human FAM46A (TENT5A) residues 64 to 394; also called TENT5A; source: E. coli BL21 (DE3), purified (Ni-NTA, on-column 3C cleavage, Resource Q); not shown: His6, N-terminal, cleaved
T4 sequence (looked up): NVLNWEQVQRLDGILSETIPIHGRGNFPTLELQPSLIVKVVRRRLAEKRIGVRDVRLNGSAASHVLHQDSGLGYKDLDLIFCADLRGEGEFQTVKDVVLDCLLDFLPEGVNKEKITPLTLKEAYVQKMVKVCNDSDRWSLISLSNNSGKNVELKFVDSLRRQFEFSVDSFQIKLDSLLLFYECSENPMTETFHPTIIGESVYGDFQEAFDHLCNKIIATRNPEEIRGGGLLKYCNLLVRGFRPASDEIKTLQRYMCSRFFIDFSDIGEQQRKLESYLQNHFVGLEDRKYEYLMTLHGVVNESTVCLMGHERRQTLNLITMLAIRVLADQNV
Briefly: crystal structure; FAM46A (64-394) with BCCIPα-ΔS (3.5 Å) or BCCIPα-ΔL (3.2 Å); complexes mixed 1:1 and purified on Superdex 200. Particulars: both partners purified.

For the molecule B1, the binding result in experiment [1] is listed as “binds”. In experiment [2], the “stoichiometry N” value was 1. Turning to B2, in experiment [3], the “mean nucleus/cytoplasm intensity ratio of FAM46A in U2OS cells coexpressing BCCIPα (immunofluorescence; 1.90 without BCCIPα)” value worked out at 2.85. Besides, the “mean nucleus/cytoplasm intensity ratio of FAM46C in U2OS cells coexpressing BCCIPα (immunofluorescence; 1.94 without BCCIPα)” value in experiment [4] worked out at 3.04.

For B3, the binding result in experiment [5] is given as “binds”. Consider B4, for which the binding result in experiment [5] is on record as “binds”.

As a reminder, the stoichiometry N is the number of molecules, sites or subunits per partner or assembly.
